For one data set, the target named is (His)6MazE-MazF complex (Escherichia coli, UniProt P0AE72;P0AE70 SEQ:1-82,SEQ:1-111). Description: EMSA; shift at 0.2 uM MazE, MazE:MazF 1:2; more than ten-fold enhancement over MazE. The settings on record: tags: N-terminal His6 on MazE; chain copies: MazF2-MazE2-MazF2 (stated); label: 32P.
A further data set has as its target MazE-MazF(His)6 complex (Escherichia coli, UniProt P0AE72;P0AE70 SEQ:1-82,SEQ:1-111). Put plainly: EMSA; 1 uM complex. The settings on record: tags: C-terminal His6 on MazF; chain copies: MazF2-MazE2-MazF2 (stated); label: 32P. A general note: A gel shift assay detects complexes by their altered migration in electrophoresis.
The next data set has as its target (His)6MazE(K7A) (Escherichia coli, UniProt P0AE72 SEQ:1-82, K7A). Description: EMSA; 4 uM. The settings on record: tags: N-terminal His6; chain copies: 2; label: 32P.
In a further data set the target is (His)6MazE(R16A) (Escherichia coli, UniProt P0AE72 SEQ:1-82, R16A). Put plainly: EMSA; 4 uM. The settings on record: tags: N-terminal His6; chain copies: 2; label: 32P.
The target of another data set is (His)6MazE(R8A) (Escherichia coli, UniProt P0AE72 SEQ:1-82, R8A). Description: EMSA; 4 uM. The settings on record: tags: N-terminal His6; chain copies: 2; label: 32P.
In a further data set the target is (His)6MazE(S12A) (Escherichia coli, UniProt P0AE72 SEQ:1-82, S12A). Description: EMSA; 4 uM. The settings on record: tags: N-terminal His6; chain copies: 2; label: 32P.
The target of the next data set is (His)6MazE (Escherichia coli, UniProt P0AE72 SEQ:1-82). Put plainly: EMSA; discrete shift at 2 uM or higher; smear at 0.4-1.0 uM; 5 mM MgCl2, poly(dI-dC), 4 C. The settings on record: tags: N-terminal His6; chain copies: 2 (inferred); label: 32P.
The target in a further data set is (His)6MazE(E57Q) (Escherichia coli, UniProt P0AE72 SEQ:1-82, E57Q). Description: EMSA; data not shown. The settings on record: tags: N-terminal His6; chain copies: 2; label: 32P.
The next data set concerns the target (His)6MazE(F53A) (Escherichia coli, UniProt P0AE72 SEQ:1-82, F53A). Description: EMSA; data not shown. The settings on record: tags: N-terminal His6; chain copies: 2; label: 32P.
The target in a further data set is (His)6MazE(R48A) (Escherichia coli, UniProt P0AE72 SEQ:1-82, R48A). Put plainly: EMSA; data not shown. The settings on record: tags: N-terminal His6; chain copies: 2; label: 32P.
The next data set has as its target MazF (Escherichia coli, UniProt P0AE70 SEQ:1-111). Description: EMSA; no binding up to 20 uM. The settings on record: tags: untagged; chain copies: 2; label: 32P.

B1: mazEF promoter 50-bp (dsDNA)
DNA 1: GCTCGTATCTACAATGTAGATTGATATATACTGTATCTACATATGATAGC
DNA 2: GCTATCATATGTAGATACAGTATATATCAATCTACATTGTAGATACGAGC
In the case of B1, the binding result with (His)6MazE-MazF complex is listed as “binds”; in the data set with MazE-MazF(His)6 complex, “binds”; with (His)6MazE(K7A) it was “no binding”; with (His)6MazE(R16A) it was “no binding”; in the data set with (His)6MazE(R8A), “no binding”; with (His)6MazE(S12A) it was “no binding”. Besides, the binding result is recorded as “binds” in the data set with (His)6MazE; “binds” with (His)6MazE(E57Q); “binds” in the data set with (His)6MazE(F53A); “binds” in the data set with (His)6MazE(R48A); “no binding” in the data set with MazF.

For the origin of these results see US20080058275, “Rna Interferases And Methods Of Use Thereof” (published 2008).
